Tests used:
Assay in all cases: co-IP
[1] = target: untagged Cx43-Y230H+F268A+Y286H (S1+2+3) (rat) (UniProt P08050)
[2] = target: Cx43-Y230H+F268A+Y286H-GFP (S1+2+3) (rat) (UniProt P08050)
[3] = target: untagged Cx43-Y230H+ΔY265AY+ΔP283PGYKLV (S1+2+3) (rat) (UniProt P08050)
[4] = target: Cx43-Y230H+ΔY265AY+ΔP283PGYKLV-GFP (S1+2+3) (rat) (UniProt P08050)
[5] = target: Cx43-F268A+Y286H-GFP (S2+3) (rat) (UniProt P08050)
[6] = target: untagged Cx43-F268A+Y286H (S2+3) (rat) (UniProt P08050)
[7] = target: untagged Cx43-ΔY265AY+ΔP283PGYKLV (S2+3) (rat) (UniProt P08050)
[8] = target: Cx43-ΔY265AY+ΔP283PGYKLV-GFP (S2+3) (rat) (UniProt P08050)

amount coprecipitated, % of wild type, with m16 (% of wild type) [1]: < 10
amount coprecipitated, % of wild type, with m16 (% of wild type) [2]: < 10
amount coprecipitated, % of wild type, with m16 (% of wild type) [3]: < 10
amount coprecipitated, % of wild type, with m16 (% of wild type) [4]: < 10
amount coprecipitated, % of wild type, with m16 (% of wild type) [5]: < 10
amount coprecipitated, % of wild type, with m16 (% of wild type) [6]: < 10
amount coprecipitated, % of wild type, with m16 (% of wild type) [7]: < 10
amount coprecipitated, % of wild type, with m16 (% of wild type) [8]: < 10
Substance: clathrin (from UniProt Q00610 1-1675) (complex)

Reference: PMC3771946
